Experiment [1] addresses human recombinant MMP-1 (human) (UniProt P03956). Kind of experiment: sandwich ELISA; capture MAB901, detection 1-8A12-HRP; MMP-1 0.156 ng/ml.
In experiment [2] the target is endogenous MMP-1 in clinical saliva samples (human) (UniProt P03956). Kind of experiment: sandwich ELISA; capture MAB901, detection 1-8A12-HRP; saliva sample 4 (MMP-1 6.4 pg/ml). In general terms: An ELISA detects its analyte on a solid surface through an enzyme-linked reagent.
The target is the same in experiment [3]. Put plainly: sandwich ELISA; capture MAB901, detection 1-8A12-HRP; saliva sample 7 (MMP-1 120.6 pg/ml).
Experiment [4] deals with human recombinant MMP-1 (human) (UniProt P03956). Put plainly: sandwich ELISA; capture MAB901, detection 1-8A12-HRP; MMP-1 5 ng/ml.
In experiment [5] the target is endogenous MMP-1 in clinical saliva samples (human) (UniProt P03956). Put plainly: sandwich ELISA; capture MAB901, detection 1-8A12-HRP; saliva sample 3 (MMP-1 1503.2 pg/ml).
For experiment [6] the target is unchanged. Kind of experiment: sandwich ELISA; capture MAB901, detection 1-8A12-HRP; saliva sample 5 (MMP-1 285.6 pg/ml).
For experiment [7] the target is unchanged. Put plainly: sandwich ELISA; capture MAB901, detection 1-8A12-HRP; saliva sample 8 (MMP-1 0 pg/ml).
The target is the same in experiment [8]. Put plainly: sandwich ELISA; capture MAB901, detection 1-8A12-HRP; saliva sample 1 (MMP-1 14821.9 pg/ml).
Experiment [9] addresses human recombinant MMP-1 (human) (UniProt P03956). Put plainly: sandwich ELISA; capture MAB901, detection 1-8A12-HRP; MMP-1 0.625 ng/ml.
Experiment [10] shares this target. Put plainly: sandwich ELISA; capture MAB901, detection 1-8A12-HRP; MMP-1 10 ng/ml.
Experiment [11] has as its target endogenous MMP-1 in clinical saliva samples (human) (UniProt P03956). Put plainly: sandwich ELISA; capture MAB901, detection 1-8A12-HRP; saliva sample 2 (MMP-1 5041.1 pg/ml).
Experiment [12] addresses human recombinant MMP-1 (human) (UniProt P03956). Kind of experiment: sandwich ELISA; capture MAB901, detection 1-8A12-HRP; MMP-1 0.313 ng/ml.
For experiment [13] the target is unchanged. Kind of experiment: sandwich ELISA; capture MAB901, detection 1-8A12-HRP; MMP-1 1.25 ng/ml.
The target of experiment [14] is endogenous MMP-1 in clinical saliva samples (human) (UniProt P03956). Put plainly: sandwich ELISA; capture MAB901, detection 1-8A12-HRP; saliva sample 6 (MMP-1 27.1 pg/ml).
In experiment [15] the target is human recombinant MMP-1 (human) (UniProt P03956). Kind of experiment: sandwich ELISA; capture MAB901, detection 1-8A12-HRP; MMP-1 2.5 ng/ml.

For MAB901 (antibody), the OD value in experiment [1] was 0.027 OD; in [2], -0.019 OD; in [3] it was 0.006 OD; in experiment [4], 1.19 OD; in experiment [5], 0.11 OD; in experiment [6] it was 0.045 OD. The OD value in [7] was -0.01 OD; in experiment [8], 2.69 OD; in experiment [9], 0.119 OD; in experiment [10] it was 2.34 OD; in [11], 0.883 OD; in experiment [12] it was 0.056 OD. Also, the OD value in experiment [13] is 0.258 OD; in experiment [14], 0.003 OD; in experiment [15], 0.544 OD.

Values taken from patent publication US20230192888A1.
